This is an account of results in paper PMC10471729, “Luvadaxistat: A Novel Potent and Selective D-Amino Acid Oxidase Inhibitor Improves Cognitive and Social Deficits in Rodent Models for Schizophrenia” (Neurochemical Research, 2023).

The data set deals with T1, N[C@H](CO)C(=O)O.
T1 construct: human recombinant DAAO enzyme
In words: Amplex Red H2O2 detection; Michaelis constant (in-house data). Format: biochemical, Homo sapiens. To be noted: FAD.

Chain of D-amino acid oxidase (DAAO) (Homo sapiens) (chain, as listed by the source): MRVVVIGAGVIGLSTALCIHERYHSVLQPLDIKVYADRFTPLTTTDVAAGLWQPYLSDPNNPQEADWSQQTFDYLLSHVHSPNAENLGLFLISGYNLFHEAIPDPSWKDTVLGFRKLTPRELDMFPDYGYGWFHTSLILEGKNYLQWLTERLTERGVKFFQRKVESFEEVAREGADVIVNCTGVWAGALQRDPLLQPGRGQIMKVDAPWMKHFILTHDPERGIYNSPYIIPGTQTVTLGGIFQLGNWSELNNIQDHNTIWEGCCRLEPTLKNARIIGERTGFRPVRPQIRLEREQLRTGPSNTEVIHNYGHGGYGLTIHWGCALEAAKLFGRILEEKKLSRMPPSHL

“D-amino acid oxidase (DAAO) (Homo sapiens)”: the Km is reported as 1.2 mM.
